2 molecules from publication PMC5450713 (Toxins, 2017) can be followed below.

As a reminder, the stoichiometry N is the number of molecules, sites or subunits per partner or assembly.

For series [1], the target named is trypsin-treated Vip3Ag4 (complex of the ~65 kDa and ~21 kDa products of proteolysis) (Bacillus thuringiensis) (UniProt I6LPV9). The series can be described thus: SEC; SEC of trypsin-treated recombinant Vip3Ag4 compared with unprocessed material; fractions of the major peak analysed by SDS PAGE. Background: In gel filtration, larger molecules generally elute earlier.

Series [2] deals with the molecule itself. The series can be described thus: SEC-MALS; Superdex 200 10/300 Increase, 100 uL at 1.0 mg/mL, 20 mM TrisHCl, 300 mM NaCl, pH 8.0, 0.7 mL/min.
Series [3] deals with the molecule itself. The series can be described thus: SEC; Hi-Prep 16/60 Sephacryl S-300, 20 mM TrisHCl pH 8.0, 300 mM NaCl, 0.5 mL/min, calibrated with gel filtration standards; initial Vip3Ag4 preparation after nickel affinity.

Turning to “trypsin-treated Vip3Ag4 (complex of the ~65 kDa and ~21 kDa products of proteolysis) (from UniProt I6LPV9 1-182; I6LPV9 199-787)”, the stoichiometry N in series [1] was 4.

B1: recombinant His-tagged Vip3Ag4 protein (natural protein, Bacillus thuringiensis, UniProt I6LPV9 1-787, looked up)
chain: MNKNNTKLNARALPSFIDYFNGIYGFATGIKDIMNMIFKTDTGGNLTLDEILKNQQLLNEISGKLDGVNGSLNDLIAQGNLNTELSKEILKIANEQNQVLNDVNNKLNAINTMLHIYLPKITSMLNDVMKQNYALSLQIEYLSKQLQEISDKLDVINVNVLINSTLTEITPAYQRMKYVNEKFEDLTFATETTLKVKKNSSPADILDELTELTELAKSVTKNDVDGFEFYLNTFHDVMVGNNLFGRSALKTASELIAKENVKTSGSEVGNVYNFLIVLTALQAKAFLTLTTCRKLLGLADIDYTFIMNEHLDKEKEEFRVNILPTLSNTFSNPNYAKAKGSNEDAKIIVEAKPGYALVGFEMSNDSITVLKAYQAKLKQDYQVDKDSLSEIVYGDMDKLLCPDQSEQIYYTNNIAFPNEYVITKITFTKKMNSLRYEATANFYDSSTGDIDLNKTKVESSEAEYSTLSASTDGVYMPLGIISETFLTPINGFGIVVDENSKLVNLTCKSYLREVLLATDLSNKETKLIVPPIGFISNIVENGNLEGENLEPWKANNKNAYVDHTGGVNGTKALYVHKDGEFSQFIGDKLKSKTEYVIQYIVKGKASILLKDEKNGDCIYEDTNNGLEDFQTITKSFITGTDSSGVHLIFNSQNGDEAFGENFTISEIRLSEDLLSPELINSDAWVGSQGTWISGNSLTINSNVNGTFRQNLSLESYSTYSMNFNVNGFAKVTVRNSREVLFEKNYPQLSPKDISEKFTTAANNTGLYVELSRFTSGGAINFRNFSIK
notes: Expected size with His-tag 91.38 kDa; also called Vip3Ag4 protoxin; unprocessed Vip3Ag4; source: E. coli BL21(DE3), pET28b, purified (Protino Ni-TED column, Sephacryl S-300 size exclusion); not shown: His tag, N-terminal, kept
On to B1, for which the “stoichiometry N” value in series [2] is 4; in series [3] it was around 4.
